The target in this series is SARS-CoV-2 nucleocapsid N protein wild type (SARS-CoV-2) (UniProt P0DTC9). In words: fluorescence anisotropy. Background: In fluorescence polarisation assays a small probe gives low polarisation when free and higher when bound to something large.

The source of these data is paper PMC9164447.

Usually pKd stands for the Kd on a negative log10 scale, so that one unit is a factor of ten.

pKd: −log10 of the molar value.

Consider NNNNNNNNNN [10-nt degenerate RNA], for which the pKd is 7.55.
